Test results from US20260274985A1 (MYTHIC THERAPEUTICS, published 2026).

T1: TROP2 on TROP2-positive NCI-H1975 cells (human, UniProt P09758 27-323)
T1 sequence: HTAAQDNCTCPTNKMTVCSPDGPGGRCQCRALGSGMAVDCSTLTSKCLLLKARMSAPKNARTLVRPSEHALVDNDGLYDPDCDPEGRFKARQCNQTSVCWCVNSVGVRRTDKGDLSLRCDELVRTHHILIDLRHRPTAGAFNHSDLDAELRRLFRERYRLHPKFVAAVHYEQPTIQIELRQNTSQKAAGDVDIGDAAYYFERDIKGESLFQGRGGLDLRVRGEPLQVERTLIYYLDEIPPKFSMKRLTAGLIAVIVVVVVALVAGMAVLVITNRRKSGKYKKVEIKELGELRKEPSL


target: T1, TROP2 on TROP2-positive NCI-H1975 cells; experiment: cell-based or functional assay

FOW H1975 (10 nM) [fold over parent antibody] | Binder
1.83 | MYT13429 (antibody, V domains shown) VH: QVQLQQSGSELKKPGASVKVSCKASGYTFTNYGMNWVKQAPGQGLKWMGWINTYTGEPTYTDDFKHRFAFSLDTSVSTAYLQISSLKADDTAVYFCARGGFGSSYWYFDVWGQGSLVTVSS VL: DIQLTQSPSSLSASVGDRVSITCKASQDVHIAVAWYQQKPGKAPKLLIYSHSYRYTGVPDRFSGSGSGTDFTLTISSLQPEDFAVYYCQQHYHTPLTFGAGTKVEIK
1.4 | MYT13432 (antibody, V domains shown) VH: QVQLQQSGSELKKPGASVKVSCKASGYTFTNYGMNWVKQAPGQGLKWMGWINTYTGEPTHTDDFKGRFAFSLDTSVSTAYLQISSLKADDTAVYFCARGGFGSSYWYFDVWGQGSLVTVSS VL: DIQLTQSPSSLSASVGDRVSITCKASQDVSIAVAWYQQKPGKAPKLLIYSHSHRYTGVPDRFSGSGSGTDFTLTISSLQPEDFAVYYCQQHYHTPLTFGAGTKVEIK
1.49 | MYT13437 (antibody, V domains shown) VH: QVQLQQSGSELKKPGASVKVSCKASGYTFTNYGMNWVKQAPGQGLKWMGWINTYTGEPTYTDDFKHRFAFSLDTSVSTAYLQISSLKADDTAVYFCARGGFGSSYWYFDVWGQGSLVTVSS VL: DIQLTQSPSSLSASVGDRVSITCKASQDVSIAVAWYQQKPGKAPKLLIYSHSHRYTGVPDRFSGSGSGTDFTLTISSLQPEDFAVYYCQQHYHTPLTFGAGTKVEIK
1.46 | MYT13434 (antibody, V domains shown) VH: QVQLQQSGSELKKPGASVKVSCKASGYTFTNYGMNWVKQAPGQGLKWMGWINTYTGEPTYTDHFKGRFAFSLDTSVSTAYLQISSLKADDTAVYFCARGGFGSSYWYFDVWGQGSLVTVSS VL: DIQLTQSPSSLSASVGDRVSITCKASQDVSIAVAWYQQKPGKAPKLLIYSHSHRYTGVPDRFSGSGSGTDFTLTISSLQPEDFAVYYCQQHYHTPLTFGAGTKVEIK
1.82 | MYT13433 (antibody, V domains shown) VH: QVQLQQSGSELKKPGASVKVSCKASGYTFTNYGMNWVKQAPGQGLKWMGWINTYTGEPTYTHDFKGRFAFSLDTSVSTAYLQISSLKADDTAVYFCARGGFGSSYWYFDVWGQGSLVTVSS VL: DIQLTQSPSSLSASVGDRVSITCKASQDVSIAVAWYQQKPGKAPKLLIYSHSHRYTGVPDRFSGSGSGTDFTLTISSLQPEDFAVYYCQQHYHTPLTFGAGTKVEIK

The next lines start with the binder.

Binder | FOW H1975 (10 nM) [fold over parent antibody]
MYT13418 (antibody, V domains shown) VH: QVQLQQSGSELKKPGASVKVSCKASGYTFTNYGMNWVKQAPGQGLKWMGWINTYTGEPTYTDHFKGRFAFSLDTSVSTAYLQISSLKADDTAVYFCARGGFGSSYWYFDVWGQGSLVTVSS VL: DIQLTQSPSSLSASVGDRVSITCKASQDVHIAVAWYQQKPGKAPKLLIYSHSYRYTGVPDRFSGSGSGTDFTLTISSLQPEDFAVYYCHQHYITPLTFGAGTKVEIK | 1.51
MYT13371 (antibody, V domains shown) VH: QVQLQQSGSELKKPGASVKVSCKASGYTFTNYGMNWVKQAPGQGLKWMGWINTYTGEPTYTDDHKGRFAFSLDTSVSTAYLQISSLKADDTAVYFCARGGFGSSYWYFDVWGQGSLVTVSS VL: DIQLTQSPSSLSASVGDRVSITCKASQDVHIAHAWYQQKPGKAPKLLIYSASYRYTGVPDRFSGSGSGTDFTLTISSLQPEDFAVYYCQQHYITPLTFGAGTKVEIK | 1.51
MYT13424 (antibody, V domains shown) VH: QVQLQQSGSELKKPGASVKVSCKASGYTFTNYGMNWVKQAPGQGLKWMGWINTYTGEPTHTDDFKGRFAFSLDTSVSTAYLQISSLKADDTAVYFCARGGFGSSYWYFDVWGQGSLVTVSS VL: DIQLTQSPSSLSASVGDRVSITCKASQDVHIAVAWYQQKPGKAPKLLIYSHSYRYTGVPDRFSGSGSGTDFTLTISSLQPEDFAVYYCQQHYHTPLTFGAGTKVEIK | 1.71
MYT13376 (antibody, V domains shown) VH: QVQLQQSGSELKKPGASVKVSCKASGYTFTNYGMNWVKQAPGQGLKWMGWINTYTGEPTHTDDFKGRFAFSLDTSVSTAYLQISSLKADDTAVYFCARGGFGSSYWYFDVWGQGSLVTVSS VL: DIQLTQSPSSLSASVGDRVSITCKASQDVHIAVAWYQQKPGKAPKLLIYSHSYRYTGVPDRFSGSGSGTDFTLTISSLQPEDFAVYYCQQHYITPLTFGAGTKVEIK | 1.42
MYT13368 (antibody, V domains shown) VH: QVQLQQSGSELKKPGASVKVSCKASGYTFTNYGMNWVKQAPGQGLKWMGWINTYTGEPTHTDDFKGRFAFSLDTSVSTAYLQISSLKADDTAVYFCARGGFGSSYWYFDVWGQGSLVTVSS VL: DIQLTQSPSSLSASVGDRVSITCKASQDVHIAHAWYQQKPGKAPKLLIYSASYRYTGVPDRFSGSGSGTDFTLTISSLQPEDFAVYYCQQHYITPLTFGAGTKVEIK | 1.43
MYT13417 (antibody, V domains shown) VH: QVQLQQSGSELKKPGASVKVSCKASGYTFTNYGMNWVKQAPGQGLKWMGWINTYTGEPTYTHDFKGRFAFSLDTSVSTAYLQISSLKADDTAVYFCARGGFGSSYWYFDVWGQGSLVTVSS VL: DIQLTQSPSSLSASVGDRVSITCKASQDVHIAVAWYQQKPGKAPKLLIYSHSYRYTGVPDRFSGSGSGTDFTLTISSLQPEDFAVYYCHQHYITPLTFGAGTKVEIK | 1.76
MYT13421 (antibody, V domains shown) VH: QVQLQQSGSELKKPGASVKVSCKASGYTFTNYGMNWVKQAPGQGLKWMGWINTYTGEPTYTDDFKHRFAFSLDTSVSTAYLQISSLKADDTAVYFCARGGFGSSYWYFDVWGQGSLVTVSS VL: DIQLTQSPSSLSASVGDRVSITCKASQDVHIAVAWYQQKPGKAPKLLIYSHSYRYTGVPDRFSGSGSGTDFTLTISSLQPEDFAVYYCHQHYITPLTFGAGTKVEIK | 1.42
MYT13426 (antibody, V domains shown) VH: QVQLQQSGSELKKPGASVKVSCKASGYTFTNYGMNWVKQAPGQGLKWMGWINTYTGEPTYTDHFKGRFAFSLDTSVSTAYLQISSLKADDTAVYFCARGGFGSSYWYFDVWGQGSLVTVSS VL: DIQLTQSPSSLSASVGDRVSITCKASQDVHIAVAWYQQKPGKAPKLLIYSHSYRYTGVPDRFSGSGSGTDFTLTISSLQPEDFAVYYCQQHYHTPLTFGAGTKVEIK | 1.71
MYT13373 (antibody, V domains shown) VH: QVQLQQSGSELKKPGASVKVSCKASGYTFTNYGMNWVKQAPGQGLKWMGWINTYTGEPTYTDDFKHRFAFSLDTSVSTAYLQISSLKADDTAVYFCARGGFGSSYWYFDVWGQGSLVTVSS VL: DIQLTQSPSSLSASVGDRVSITCKASQDVHIAHAWYQQKPGKAPKLLIYSASYRYTGVPDRFSGSGSGTDFTLTISSLQPEDFAVYYCQQHYITPLTFGAGTKVEIK | 1.6
MYT13386 (antibody, V domains shown) VH: QVQLQQSGSELKKPGASVKVSCKASGYTFTNYGMNWVKQAPGQGLKWMGWINTYTGEPTYTDHFKGRFAFSLDTSVSTAYLQISSLKADDTAVYFCARGGFGSSYWYFDVWGQGSLVTVSS VL: DIQLTQSPSSLSASVGDRVSITCKASQDVHIAVAWYQQKPGKAPKLLIYSAHYRYTGVPDRFSGSGSGTDFTLTISSLQPEDFAVYYCQQHYITPLTFGAGTKVEIK | 1.71
MYT13378 (antibody, V domains shown) VH: QVQLQQSGSELKKPGASVKVSCKASGYTFTNYGMNWVKQAPGQGLKWMGWINTYTGEPTYTDHFKGRFAFSLDTSVSTAYLQISSLKADDTAVYFCARGGFGSSYWYFDVWGQGSLVTVSS VL: DIQLTQSPSSLSASVGDRVSITCKASQDVHIAVAWYQQKPGKAPKLLIYSHSYRYTGVPDRFSGSGSGTDFTLTISSLQPEDFAVYYCQQHYITPLTFGAGTKVEIK | 1.4
